The values that follow are results of earlier work, collected in publication PMC4475429.

This data set deals with PKA RIα (Homo sapiens) (UniProt P10644).
Sequence of PKA RIα (Homo sapiens) (P10644 whole entry): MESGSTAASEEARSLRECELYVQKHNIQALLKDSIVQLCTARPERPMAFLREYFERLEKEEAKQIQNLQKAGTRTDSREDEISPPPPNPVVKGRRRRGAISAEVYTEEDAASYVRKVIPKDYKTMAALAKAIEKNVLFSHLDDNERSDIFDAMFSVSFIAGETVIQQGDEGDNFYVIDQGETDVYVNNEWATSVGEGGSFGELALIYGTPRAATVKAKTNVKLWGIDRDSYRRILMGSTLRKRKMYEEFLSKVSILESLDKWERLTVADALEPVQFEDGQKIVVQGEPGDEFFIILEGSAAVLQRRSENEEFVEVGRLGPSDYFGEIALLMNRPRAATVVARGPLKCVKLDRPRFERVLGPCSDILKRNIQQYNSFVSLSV

Sequence of Ht31 (Q12802 whole entry): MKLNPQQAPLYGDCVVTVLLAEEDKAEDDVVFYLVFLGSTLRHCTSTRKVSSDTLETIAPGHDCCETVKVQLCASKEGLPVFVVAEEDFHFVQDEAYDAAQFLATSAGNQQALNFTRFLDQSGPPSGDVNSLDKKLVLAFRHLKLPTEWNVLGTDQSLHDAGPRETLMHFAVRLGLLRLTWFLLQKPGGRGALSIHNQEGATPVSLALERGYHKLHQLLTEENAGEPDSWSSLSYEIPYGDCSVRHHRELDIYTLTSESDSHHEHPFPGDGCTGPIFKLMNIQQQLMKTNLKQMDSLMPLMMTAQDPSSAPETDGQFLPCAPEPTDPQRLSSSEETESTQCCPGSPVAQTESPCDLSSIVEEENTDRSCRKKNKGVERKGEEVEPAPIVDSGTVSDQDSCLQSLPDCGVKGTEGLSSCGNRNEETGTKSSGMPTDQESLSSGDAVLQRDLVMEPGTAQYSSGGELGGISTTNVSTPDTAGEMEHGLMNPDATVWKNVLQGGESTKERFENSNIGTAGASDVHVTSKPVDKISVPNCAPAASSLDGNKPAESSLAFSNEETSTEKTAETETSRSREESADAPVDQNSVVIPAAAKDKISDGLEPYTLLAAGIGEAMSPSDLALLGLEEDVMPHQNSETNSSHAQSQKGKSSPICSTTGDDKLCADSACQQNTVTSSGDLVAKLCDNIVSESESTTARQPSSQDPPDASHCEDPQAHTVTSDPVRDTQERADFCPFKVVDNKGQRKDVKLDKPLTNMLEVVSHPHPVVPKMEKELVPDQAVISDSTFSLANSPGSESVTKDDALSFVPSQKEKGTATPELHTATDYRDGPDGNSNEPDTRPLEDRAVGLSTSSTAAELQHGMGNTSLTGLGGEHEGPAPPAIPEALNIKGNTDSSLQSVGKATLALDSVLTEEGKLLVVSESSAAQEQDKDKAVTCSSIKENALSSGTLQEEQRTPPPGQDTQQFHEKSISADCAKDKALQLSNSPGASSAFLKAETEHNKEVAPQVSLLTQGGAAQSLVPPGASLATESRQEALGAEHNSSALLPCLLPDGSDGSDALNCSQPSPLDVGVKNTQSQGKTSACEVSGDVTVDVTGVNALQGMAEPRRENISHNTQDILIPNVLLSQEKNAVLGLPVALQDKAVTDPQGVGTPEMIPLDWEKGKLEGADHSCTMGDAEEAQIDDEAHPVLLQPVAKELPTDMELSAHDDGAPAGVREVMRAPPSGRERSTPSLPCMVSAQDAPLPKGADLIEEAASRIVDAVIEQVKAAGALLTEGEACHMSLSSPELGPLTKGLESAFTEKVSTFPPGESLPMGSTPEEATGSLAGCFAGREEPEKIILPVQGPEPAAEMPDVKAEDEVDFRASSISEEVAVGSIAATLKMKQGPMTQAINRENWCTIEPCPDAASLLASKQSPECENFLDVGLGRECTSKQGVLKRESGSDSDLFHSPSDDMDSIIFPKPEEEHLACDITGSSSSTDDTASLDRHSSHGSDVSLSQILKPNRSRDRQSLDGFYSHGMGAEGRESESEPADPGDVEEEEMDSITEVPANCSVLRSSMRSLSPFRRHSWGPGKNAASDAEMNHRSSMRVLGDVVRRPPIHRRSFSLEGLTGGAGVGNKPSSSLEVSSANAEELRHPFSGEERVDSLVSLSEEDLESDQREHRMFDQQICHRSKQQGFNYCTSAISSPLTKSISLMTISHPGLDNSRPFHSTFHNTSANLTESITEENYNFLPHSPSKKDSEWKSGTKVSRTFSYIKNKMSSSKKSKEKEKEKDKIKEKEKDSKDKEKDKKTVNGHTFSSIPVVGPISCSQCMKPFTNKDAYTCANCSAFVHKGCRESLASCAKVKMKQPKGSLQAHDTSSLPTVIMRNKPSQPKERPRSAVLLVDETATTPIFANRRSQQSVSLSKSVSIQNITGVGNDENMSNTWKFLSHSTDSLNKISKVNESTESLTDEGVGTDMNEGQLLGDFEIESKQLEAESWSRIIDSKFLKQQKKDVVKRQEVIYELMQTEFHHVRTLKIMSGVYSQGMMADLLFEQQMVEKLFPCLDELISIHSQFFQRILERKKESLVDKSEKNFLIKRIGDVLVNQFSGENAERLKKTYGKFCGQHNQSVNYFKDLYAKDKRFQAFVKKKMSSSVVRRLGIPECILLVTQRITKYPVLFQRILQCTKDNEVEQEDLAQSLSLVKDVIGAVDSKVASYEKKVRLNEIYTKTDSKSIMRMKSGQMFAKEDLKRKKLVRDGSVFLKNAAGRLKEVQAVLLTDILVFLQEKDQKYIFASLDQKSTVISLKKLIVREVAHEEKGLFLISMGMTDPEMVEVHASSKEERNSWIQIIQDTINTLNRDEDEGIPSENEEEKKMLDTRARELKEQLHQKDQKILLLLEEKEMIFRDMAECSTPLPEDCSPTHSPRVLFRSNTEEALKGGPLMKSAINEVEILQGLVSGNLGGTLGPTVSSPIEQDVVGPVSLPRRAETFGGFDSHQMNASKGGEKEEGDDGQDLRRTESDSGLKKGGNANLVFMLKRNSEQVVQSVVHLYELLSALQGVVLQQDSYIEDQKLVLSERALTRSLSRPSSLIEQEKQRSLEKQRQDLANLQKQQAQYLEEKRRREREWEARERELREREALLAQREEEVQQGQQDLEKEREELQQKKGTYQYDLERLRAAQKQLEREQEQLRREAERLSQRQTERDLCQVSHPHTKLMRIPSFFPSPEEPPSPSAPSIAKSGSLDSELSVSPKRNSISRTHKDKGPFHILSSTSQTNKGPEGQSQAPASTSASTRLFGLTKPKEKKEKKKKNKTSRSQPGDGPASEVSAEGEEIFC

The Kd is the free concentration of one partner at which half of the binding sites on the other are occupied at equilibrium, for simple one-to-one binding. As for Ht31 (from UniProt Q12802), the Kd is 2.1 µM.
